{
  "source": "patent US20220348635A1",
  "about": "“COMPOSITIONS AND METHODS FOR NEUROLOGICAL DISEASES” (Coda Biotherapeutics, Inc., priority 2019, published 2022)",
  "molecules": {"B1": {"name": "Y115D, L131Q in SEQ ID NO: 33: CR-11 (Chemogenic receptor-11): SEQ ID NO: 33 with substitutions Y115D and L131Q (protein)", "chain": "MRCSPGGVWLALAASLLHVSLQGEFQRKLYKELVKNYNPLERPVANDSQPLTVYFSLSLLQIMDVDEKNQVLTTNIWLQMSWTDHYLQWNVSEYPGVKTVRFPDGQIWKPDILLDNSADERFDATFHTNVQVNSSGHCQYLPPGIFKSSCPMDLKNFPMDVQTCKLKFGSWSYGGWSLDLQMQEADISGYIPNGEWDLVGIPGKRSERFYECCKEPYPDVTFTVTMRRRMGYYLIQMYIPSLLIVILSWISFWINMDAAPARVGLGITTVLTMTTQSSGSRASLPKVSYVKAIDIWMAVCLLFVFSALLEYAAVNFVSRQHKELLRFRRKRRHHKSPMLNLFQEDEAGEGRFNFSAYGMGPACLQAKDGISVKGANNSNTTNPPPAPSKSPEEMRKLFIQRAKKIDKISRIGFPMAFLIFNMFYWIIYKIVRREDVHNQ", "modifications": "synthetic sequence of chimeric LGIC"}},
  "assay_type_in_all_cases": "cell-based",
  "key": {"[1]": {"experiment": "Rheobase shift in rat DRG neurons, TC-5619", "procedure": "(§1) Using whole cell manual patch clamp electrophysiology in HEK293 cells and rat DRG neurons, the EC50 of the various engineered receptors disclosed herein to Ach and non-native ligands was measured. The rheobase shift was also measured in rat DRG neurons, which reflects the efficacy of the receptors. To calculate the rheobase, first, the amount of current that can produce an action potential was determined. Then the ligand was added, followed by a step wise increase in the current injected up to 700 pA. The current injected after addition of the ligand was divided by, the original current injected to obtain an action potential, to calculate the rheobase. The EC50 was calculated using the Hill equation with peak current measurements from escalating doses of ligand."}, "[2]": {"experiment": "YFP quench plate reader assay, response to RG3487", "conditions": "LX293T YFP reporter cells", "procedure,_shortened": "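Cells were seeded two days ahead, transfected the next day with mutant channel DNA, and washed in HEPES-buffered ECS on assay day. After 30 min at 37° C, iodide-containing ligand solution was added, and YFP quench tracked every 1.3 sec relative to baseline.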"}, "[3]": {"experiment": "High throughput electrophysiology in HEK293T cells, acetylcholine", "procedure": "To confirm the EC50s determined by plate reader as well as develop a better understanding of maximum current flow, the engineered receptors were subjected to high throughput electrophysiology system, as described below. For HEK293T studies, cDNAs encoding ion channels were cloned into pcDNA3.1 using standard recombination techniques. HEK293T cells from Clontech (Lenti-X™ 293T Cell Line) were cultured in DMEM supplemented with 10% FBS and 1% Pen/Strep to 40-50% confluence using standard cell culture protocols, transfected with ion channel plasmids at a concentration of 18 μg per 15 cm dish using Fugene 6, and grown for an additional 24 hours. Cells were then assayed on a electrophysiological system (IonFluxHT and/or Mercury, Fluxion Biosciences) in which dose-response relationships may be assessed through a microfluidics-based platform for establishing whole cell configurations. […] Data were then analyzed off-line using custom Python scripts to convert data to .csv format, re-plot traces, and apply QC measurements to reject unstable recordings (i.e. thresholding based on access resistance and/or standard deviation in baseline, as well as artifact rejection). Peak currents were then calculated and population data were fit using a 4-parameter logistic equation as described by the Hill Equation. […]"}, "[4]": {"experiment": "Manual patch clamp, HEK cell line, acetylcholine", "conditions": "HEK293 cells and cultured rat DRG sensory neurons", "procedure": "FIG. 2A-FIG. 2B show the concentration-response curves of CR-11 (Chemogenic receptor-11, an engineered receptor comprising an amino acid sequence having the amino acid substitutions of Y115D and L131Q in SEQ ID NO: 33) expressed in HEK 293 cells to acetylcholine as well as to non-native ligands RG-3487 (SA-2, Synthetic Agonist-2). The responses were evaluated using manual patch clamp electrophysiology. Currents were normalized to unity for the maximal response. The continuous line through the data points is the best fit obtained with the Hill equation, and EC50s for each ligand are estimated from the concentration-response curves.\nas §1, with “The current injected after addition of the ligand was divided by, the original current injected to obtain an action potential, to calculate the rheobase.” left out"}},
  "data": [
    {"molecule": "B1", "values": [
      {"measurement": "Rheobase Shift; Rat DRG Neurons, +TC-5619", "setting": "[1]; TC5619 @ EC90", "result": "625 ± 35", "unit": "pA"},
      {"measurement": "Rheobase Shift; Rat DRG Neurons, Baseline", "setting": "[1]; receptor-expressing rat DRG neurons, before ligand", "result": "163 ± 28", "unit": "pA"},
      {"measurement": "percent quench of YFP fluorescence, 30 nM fac", "setting": "[2]; 30 nM RG3487", "result": 41.32, "unit": "%"},
      {"measurement": "percent quench of YFP fluorescence, 100 nM fac", "setting": "[2]; 100 nM RG3487", "result": 59.51, "unit": "%"},
      {"measurement": "percent quench of YFP fluorescence, 300 nM fac", "setting": "[2]; 300 nM RG3487", "result": 74.86, "unit": "%"},
      {"measurement": "percent quench of YFP fluorescence, 10 uM fac", "setting": "[2]; 10 uM RG3487", "result": 78.53, "unit": "%"},
      {"measurement": "percent quench of YFP fluorescence, 30 uM fac", "setting": "[2]; 30 uM RG3487", "result": 84.45, "unit": "%"},
      {"measurement": "fold reduced potency to acetylcholine compared to wild type receptor", "setting": "[3]", "result": "over 500 fold"},
      {"measurement": "sensitivity / potency to acetylcholine", "setting": "[4]", "result": "essentially insensitive"}
    ]}
  ]
}
